Data as given in patent US20190322724.

Experiments:
[1] = target: WT TIMP-2-His6 tyrosine phosphorylated by c-Src
[2] = target: wild type human TIMP-2 with C-terminal His6 tag (WT TIMP-2-His6)

TIMP-2 Y90F-His6, sequence (chain, as listed by the source Y90F): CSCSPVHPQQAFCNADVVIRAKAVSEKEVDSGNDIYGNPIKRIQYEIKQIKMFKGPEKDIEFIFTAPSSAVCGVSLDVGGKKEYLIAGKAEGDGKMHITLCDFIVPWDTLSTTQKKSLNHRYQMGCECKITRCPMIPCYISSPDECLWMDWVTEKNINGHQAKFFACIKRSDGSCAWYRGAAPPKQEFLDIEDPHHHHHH
TIMP-2 Y90E-His6, sequence (chain, as listed by the source Y90E): as the sequence (chain, as listed by the source Y90F) above, with F64E counted along it

B1: active 62 kDa MMP-2 (protein)
chain: YNFFPRKPKWDKNQITYRIIGYTPDLDPETVDDAFARAFQVWSDVTPLRFSRIHDGEADIMINFGRWEHGDGYPFDGKDGLLAHAFAPGTGVGGDSHFDDDELWTLGEGQVVRVKYGNADGEYCKFPFLFNGKEYNSCTDTGRSDGFLWCSTTYNFEKDGKYGFCPHEALFTMGGNAEGQPCKFPFRFQGTSYDSCTTEGRTDGYRWCGTTEDYDRDKKYGFCPETAMSTVGGNSEGAPCVFPFTFLGNKYESCTSAGRSDGKMWCATTANYDDDRKWGFCPDQGYSLFLVAAHEFGHAMGLEHSQDPGALMAPIYTYTKNFRLSQDDIKGIQELYGASPDIDLGTGPTPTLGPVTPEICKQDIVFDGIAQIRGEIFFFKDRFIWRTVTPRDKPMGPLLVATFWPELPEKIDAVYEAPQEEKAVFFAGNEYWIYSASTLERGYPKPLTSLGLPPDVQRVDAAFNWSKNKKTYIFAGDKFWRYNEVKKKMDPGFPKLIADAWNAIPDNLDAVVDLQGGGHSYFFKGAYYLKLENQSLKSVKFGSIKSDWLGC
MMP-2 enzymatic activity on a fluorogenic peptide substrate [1]: phosphoTIMP-2 (pWT) is significantly (˜25 percent) more inhibitory than the non-phosphorylated WT TIMP-2 toward MMP-2 | MMP-2 enzymatic activity on a fluorogenic peptide substrate (TIMP-2 Y90E-His6): phosphomimetic TIMP-2 Y90E inhibitory function correlates with significantly less MMP-2 enzymatic activity | MMP-2 enzymatic activity on a fluorogenic peptide substrate [2]: as expected WT TIMP-2 acts as an MMP-2 inhibitor | MMP-2 enzymatic activity on a fluorogenic peptide substrate (TIMP-2 Y90F-His6): non-phosphorylatable Y90F displayed a slightly less MMP-2 inhibitory activity compared the WT TIMP-2
